For the assay, the target named is SNAP-25 (endogenous, human induced neurons) (human) (UniProt P60880). Put plainly: cell-based or functional assay.
Sequence of SNAP-25 (endogenous, human induced neurons) (human) (P60880 whole entry): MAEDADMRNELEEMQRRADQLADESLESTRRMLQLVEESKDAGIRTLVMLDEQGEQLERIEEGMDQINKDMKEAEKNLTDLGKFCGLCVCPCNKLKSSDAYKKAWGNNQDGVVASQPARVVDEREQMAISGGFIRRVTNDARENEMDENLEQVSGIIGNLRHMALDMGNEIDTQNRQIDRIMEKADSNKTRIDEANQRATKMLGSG

Regarding “endogenous CSPα of ANCL patient-derived induced neurons (iNs), which co-express the CSPα^WT and CSPα^L116Δ alleles (from UniProt Q9H3Z4 1-198; Q9H3Z4 1-198)”, the SNAP-25 degradation half-life, cycloheximide chase in iNs stood at 12.5 h and the SNAP-25 half-life after L1 or Dfx treatment against control, cycloheximide chase in ANCL iNs was found to be 2 fold.

Source of the values: patent US20210290602A1.
